Each block holds one binder with its values, some of them ahead of it.
Tests used:
GST-Exo70p = GST-Exo70p (yeast, UniProt P19658 1-623); assay: pull-down
GST-Bem1p = target: T1, GST-Bem1p (yeast, UniProt P29366 1-551); assay: pull-down
T1 sequence (looked up): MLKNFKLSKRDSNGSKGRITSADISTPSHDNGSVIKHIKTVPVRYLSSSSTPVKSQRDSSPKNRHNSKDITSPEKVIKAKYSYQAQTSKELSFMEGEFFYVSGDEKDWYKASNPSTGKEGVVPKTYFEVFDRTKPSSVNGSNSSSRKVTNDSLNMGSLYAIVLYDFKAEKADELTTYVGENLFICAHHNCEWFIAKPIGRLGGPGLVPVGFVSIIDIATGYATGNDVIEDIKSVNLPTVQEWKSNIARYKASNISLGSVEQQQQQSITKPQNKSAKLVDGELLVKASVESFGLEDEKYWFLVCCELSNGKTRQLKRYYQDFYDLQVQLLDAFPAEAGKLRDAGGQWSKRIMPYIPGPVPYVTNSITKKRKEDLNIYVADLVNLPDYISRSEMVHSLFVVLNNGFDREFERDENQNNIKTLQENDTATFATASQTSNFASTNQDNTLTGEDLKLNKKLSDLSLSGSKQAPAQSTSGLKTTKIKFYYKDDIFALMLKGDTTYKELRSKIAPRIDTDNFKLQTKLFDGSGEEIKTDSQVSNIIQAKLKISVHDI

Chain of GST-Exo70p (P19658 whole entry): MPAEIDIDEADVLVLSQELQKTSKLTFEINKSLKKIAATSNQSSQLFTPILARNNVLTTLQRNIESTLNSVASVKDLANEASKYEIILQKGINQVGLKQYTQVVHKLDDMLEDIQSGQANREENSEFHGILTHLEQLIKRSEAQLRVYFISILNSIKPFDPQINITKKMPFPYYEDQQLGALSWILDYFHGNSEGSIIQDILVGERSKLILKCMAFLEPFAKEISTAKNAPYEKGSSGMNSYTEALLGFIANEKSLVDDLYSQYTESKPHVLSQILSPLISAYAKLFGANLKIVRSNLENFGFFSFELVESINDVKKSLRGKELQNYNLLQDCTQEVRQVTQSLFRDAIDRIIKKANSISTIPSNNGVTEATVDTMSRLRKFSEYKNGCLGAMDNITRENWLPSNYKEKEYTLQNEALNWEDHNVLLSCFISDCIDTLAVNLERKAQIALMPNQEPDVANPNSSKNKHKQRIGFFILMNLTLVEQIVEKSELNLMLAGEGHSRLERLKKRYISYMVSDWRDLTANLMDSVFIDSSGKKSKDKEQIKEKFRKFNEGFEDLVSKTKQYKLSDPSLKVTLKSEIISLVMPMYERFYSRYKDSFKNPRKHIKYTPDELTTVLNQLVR

Kd (GST-Exo70p): ~260 nM
B1: Bem1p-His6 (natural protein, yeast, UniProt P29366 1-551, looked up)
chain: T1 sequence (looked up)

binding result (GST-Bem1p): binds
B2: His6-MBP-Cdc24^781-854p (domain or fragment, yeast, UniProt P11433 781-854, looked up)
chain: FTLLVEKVWNFDDLIMAINSKISNTHNNNISPITKIKYQDEDGDFVVLGSDEDWNVAKEMLAENNEKFLNIRLY

Reference: publication PMC4195821 (The Journal of Cell Biology, 2014)
